We go through three proteins from paper PMC11897370 (Scientific Reports, 2025).

The data set deals with the molecule itself. Put plainly: dynamic light scattering.

B1: Wild type (Wt) peroxiredoxin 6 (Prdx6), recombinant rat (enzyme)
chain: MPGGLLLGDEAPNFEANTTIGHIRFHDFLGDSWGILFSHPRDFTPVCTTELGRAAKLAPEFAKRNVKLIALSIDSVEDHFAWSKDINAYNGAAPTEKLPFPIIDDKDRDLAILLGMLDPAEKDEKGMPVTARVVFIFGPDKKLKLSILYPATTGRNFDEILRVVDSLQLTASNPVATPVDWKKGESVMVLPTLPEEEAKQLFPKGVFTKELPSGKKYLRYTPQP
Usually stoichiometry N stands for a count of units in the complex or per binding partner. Regarding B1, the “stoichiometry N” value was found to be 2.

B2: D42A mutant of rat Prdx6 (enzyme)
chain: MPGGLLLGDEAPNFEANTTIGHIRFHDFLGDSWGILFSHPRAFTPVCTTELGRAAKLAPEFAKRNVKLIALSIDSVEDHFAWSKDINAYNGAAPTEKLPFPIIDDKDRDLAILLGMLDPAEKDEKGMPVTARVVFIFGPDKKLKLSILYPATTGRNFDEILRVVDSLQLTASNPVATPVDWKKGESVMVLPTLPEEEAKQLFPKGVFTKELPSGKKYLRYTPQP
As to B2, the “stoichiometry N” value worked out at 2.

B3: H79A mutant of rat Prdx6 (enzyme)
chain: MPGGLLLGDEAPNFEANTTIGHIRFHDFLGDSWGILFSHPRDFTPVCTTELGRAAKLAPEFAKRNVKLIALSIDSVEDAFAWSKDINAYNGAAPTEKLPFPIIDDKDRDLAILLGMLDPAEKDEKGMPVTARVVFIFGPDKKLKLSILYPATTGRNFDEILRVVDSLQLTASNPVATPVDWKKGESVMVLPTLPEEEAKQLFPKGVFTKELPSGKKYLRYTPQP
In the case of B3, the “stoichiometry N” value was 2.
